In publication doi:10.1101/2020.04.16.045419 (bioRxiv, 2020):

B1: Sb#1 (VHH)
VHH: QVQLVESGGGLVQAGGSLRLSCAASGFPVRKANMHWYRQAPGKEREWVAAIMSKGEQTVYADSVEGRFTISRDNAKNTVYLQMNSLKPEDTAVYYCRVFVGWHYFGQGTQVTVS
B2: Sb#2 (VHH)
VHH: QVQLVESGGGLVQAGGSLRLSCATSGFPVYQANMHWYRQAPGKEREWVAAIQSYGDGTHYADSVKGRFTISRDNAKNTVYLQMNSLKPEDTAVYYCRAVYVGMHYFGQGTQVTVS
B3: Sb#3 (VHH)
VHH: QVQLVESGGGLVQAGGSLRLSCAASGFPVNYKTMWWYRQAPGKEREWVAAIWSYGHTTHYADSVKGRFTISRDNAKNTVYLQMNSLKPEDTAVYYCVVWVGHNYEGQGTQVTVS
B4: Sb#5 (VHH)
VHH: QVQLVESGGGLVQAGGSLRLSCAASGFPVFSGHMHWYRQAPGKEREWVAAILSNGDSTHYADSVKGRFTISRDNAKNTVYLQMNSLKPEDTAVYYCRVHVGAHYFGQGTQVTVS
B5: Sb#6 (VHH)
VHH: QVQLVESGGGLVQAGGSLRLSCAASGFPVEQGRMYWYRQAPGKEREWVAAIISHGTVTVYADSVKGRFTISRDNAKNTVYLQMNSLKPEDTAVYYCYVYVGAQYWGQGTQVTVS
B6: Sb#8 (VHH)
VHH: QVQLVESGGGLVQAGGSLRLSCAASGFPVNAGNMHWYRQAPGKEREWVAAIQSYGRTTYYADSVKGRFTISRDNAKNTVYLQMNSLKPEDTAVYYCRVFVGMHYFGQGTQVTVS
B7: Sb#9 (VHH)
VHH: QVQLVESGGGLVQAGGSLRLSCAASGFPVSSSTMTWYRQAPGKEREWVAAINSYGWETHYADSVKGRFTISRDNAKNTVYLQMNSLKPEDTAVYYCYVYVGGSYIGQGTQVTVS
B8: Sb#10 (VHH)
VHH: QVQLVESGGGLVQAGGSLRLSCAASGFPVQSHYMRWYRQAPGKEREWVAAIESTGHHTAYADSVKGRFTISRDNAKNTVYLQMNSLKPEDTAVYYCTVYVGYEYHGQGTQVTVS
B9: Sb#11 (VHH)
VHH: QVQLVESGGGLVQAGGSLRLSCAASGFPVETENMHWYRQAPGKEREWVAAIYSHGMWTAYADSVKGRFTISRDNTKNTVYLQMNSLKPEDTAVYYCEVEVGKWYFGQGTQVTVS
B10: Sb#12 (VHH)
VHH: QVQLVESGGGLVQAGGSLRLSCAASGFPVKASRMYWYRQAPGKEREWVAAIQSFGEVTWYADSVKGRFTISRDNAKNTVYLQMNSLKPEDTAVYYCYVWVGQEYWGQGTQVTVS
B11: Sb#13 (VHH)
VHH: QVQLVESGGGLVQAGGSLRLSCAASGFPVYASNMHWYRQAPGKEREWVAAIESQGYMTAYADSVKGRFTISRDNAKNTVYLQMNSLKPEDTAVYYCWVIVGEYYVGQGTQVTVS
B12: Sb#17 (VHH)
VHH: QVQLVESGGGLVQAGGSLRLSCAASGFPVAGRNMWWYRQAPGKEREWVAAIYSSGTYTEYADSVKGRFTISRDNAKNTVYLQMNSLKPEDTAVYYCHVWVGSLYKGQGTQVTVS
B13: Sb#19 (VHH)
VHH: QVQLVESGGGLVQAGGSLRLSCAASGFPVNSHEMTWYRQAPGKEREWVAAIQSTGTVTEYADSVKGRFTISRDNAKNTVYLQMNSLKPEDTAVYYCYVYVGSSYLGQGTQVTVS
B14: Sb#20 (VHH)
VHH: QVQLVESGGGLVQAGGSLRLSCAASGFPVEQREMEWYRQAPGKEREWVAAIDSNGNYTFYADSVKGRFTISRDNAKNTVYLQMNSLKPEDTAVYYCYVYVGKSYIGQGTQVTVS
B15: Sb#21 (VHH)
VHH: QVQLVESGGGLVQAGGSLRLSCAASGFPVKHHWMFWYRQAPGKEREWVAAIKSYGYGTEYADSVKGRFTISRDNAKNTVYLQMNSLKPEDTAVYYCFVGVGTHYAGQGTQVTVS
B16: Sb#23 (VHH)
VHH: QVQLVESGGGLVQAGGSLRLSCAASGFPVYAAEMEWYRQAPGKEREWVAAISSQGTITYYADSVKGRFTISRDNAKNTVYLQMNSLKPEDTAVYYCFVYVGKSYIGQGTQVSVS
B17: Sb#25 (VHH)
VHH: QVQLVESGGGLVQAGGSLRLSCAASGFPVHAWEMAWYRQAPGKEREWVAAIRSFGSSTHYADSVKGRFTISRDNAKNTVYLQMNSLKPEDTAVYYCNVKDFGTHHYAYDYWGQGTQVTVS
B18: Sb#26 (VHH)
VHH: QVQLVESGGGLVQAGGSLRLSCAASGFPVNTWWMHWYRQAPGKEREWVAAITSWGFRTYYADSVKGRFTISRDNAKNTVYLQMNSLKPEDTAVYYCNVKDKGMAVQWYDYWGQGTQVTVS
B19: Sb#27 (VHH)
VHH: QVQLVESGGGLVQAGGSLRLSCAASGFPVYNTWMEWYRQAPGKEREWVAAITSHGYKTYYADSVKGRFTISRDNAKNTVYLQMNSLKPEDTAVYYCNVKDEGDMFTAYDYWGQGTQVTVS
B20: Sb#28 (VHH)
VHH: QVQLVESGGGLVQAGGSLRLSCAASGFPVYHSTMFWYRQAPGKEREWVAAIYSSGQHTYYADSVKGRFTISRDNAKNTVYLQMNSLKPEDTAVYYCNVKDSGQWRQEYDYWGQGTQVTVS
B21: Sb#29 (VHH)
VHH: QVQLVESGGGLVQAGGSLRLSCAASGFPVEHEMAWYRQAPGKEREWVAAIRSMGRKTLYADSVKGRFTISRDNAKNTVYLQMNSLKPEDTAVYYCNVKDFGYTWHEYDYWGQGTQVTVS
B22: Sb#30 (VHH)
VHH: QVQLVESGGGLVQAGGSLRLSCAASGFPVTMAWMWWYRQAPGKEREWVAAIRSEGVRTYYADSVKGRFTISRDNAKNTVYLQMNSLKPEDTAVYYCNVKDYGQAHAYYDYWGQGTQVTVS
B23: Sb#31 (VHH)
VHH: QVQLVESGGGLVQAGGSLRLSCAASGFPVNSHFMEWYRQAPGKEREWVAAIQHSSGFHTYYADSVKGRFTISRDNAKNTVYLQMNSLKPEDTAVYYCNVKDTGTTEDYDYWGQGTQVTVS
B24: Sb#32 (VHH)
VHH: QVQLDESGGGLVQAGGSLRLSCAASGFPVYHAWMEWYRQAPGKEREWVAAITSSGRHTYYADSVKGRFTISRDNAKNTVYLQMNSLKPEDTAVYYCNVKDAGRVYNSYDYWGQGTQVTVS
B25: Sb#33 (VHH)
VHH: QVQLVESGGGLVQAGGSLRLSCAASGFPVAHAWMEWYRQAPGKEREWVAAITSYGYKTYYADSVKGRFTISRDNAKNTVYLQMNSLKPEDTAVYYCNVKDTGTYRFYYDYWGQGTQVTVS
B26: Sb#35 (VHH)
VHH: QVQLVESGGGLVQAGGSLRLSCAASGFPVEHYWMEWYRQAPGKEREWVAAITSFGYRTYYADSVKGRFTISRDNAKNTVYLQMNSLKPEDTAVYYCNVKDWGFASHAYDYWGQGIQVTVS
B27: Sb#36 (VHH)
VHH: QVQLVESGGGLVQAGGSLRLSCAASGFPEIAWEMAWYRQAPGKEREWVAAIRSFGERTLYADSVKGRFTISRDNAKNTVYLQMNSLKPEDTAVYYCNVKDFGWQHQEYDYWGQGTQVTVS
B28: Sb#37 (VHH)
VHH: QVQLVESGGGLVQAGGSLRLSCAASGFPVYHAYMEWYRQAPGKEREWVAAIYSNGEHTYYADSVKGRFTISRDNAKNTVYLQMNSLKPEDTAVYYCNVKDSGSFNQAYDYWGQGTQVTVS
B29: Sb#38 (VHH)
VHH: QVQLVESGGGLVQAGGSLRLSCAASGFPVEWSHMHWYRQAPGKEREWVAAIVSKGGYTLYADSVKGRFTISRDNAKNTVYLQMNSLKPEDTAVYYCNVKDYGVHFKRYDYWGQGTQVTVI
B30: Sb#39 (VHH)
VHH: QVQLVESGGGLVQAGGSLRLSCAASGFPVFHVWMEWYRQAPGKEREWVAAIDSAGWHTYYADSVKGRFTISRDNAKNTVYLQMNSLKPEDTAVYYCNVKDAGNTTSAYDYWGQGTQVTVS
B31: Sb#40 (VHH)
VHH: QVQLVESGGGLVQAGGSLRLSCAASGFPVYYNWMEWYRQAPGKEREWVAAIHSNGDETFYADSVKGRFTISRDNAKNTVYLQMNSLKPEDTAVYYCNVKDIDAEAYAYDYWGQGTQVTVS
B32: Sb#46 (VHH)
VHH: QVQLVESGGGLVQAGGSLRLSCAASGFPVDNGYMHWYRQAPGKEREWVAAIDSYGWHTIYADSVKGRFTISRDNAKNTVYLQMNSLKPEDTAVYYCNVKDKGQMRAAYDYWGQGTQVTVS
B33: Sb#48 (VHH)
VHH: QVQLVESGGGLVQAGGSLRLSCAASGFPVSQSVMAWYRQAPGKEREWVAAIYSKGQYTHYADSVKGRFTISRDNAKNTVYLQMNSLKPEDTAVYYCNVKDAGSSYWDYDYWGQGTQVTVS
B34: Sb#49 (VHH)
VHH: QVQLVESGGGSVQAGGSLRLSCAASGSIGQIEYLGWFRQAPGKEREGVAALNTWTGRTYYADSVKGRFTVSLDNAKNTVYLQMNSLKPEDTALYYCAAARWGRTKPLNTYYYSYWGQGTPVTVS

What follows are binders tested against SARS-CoV-2 RBD construct consisting of residues Pro330-Gly526 fused to Venus YFP (RBD-vYFP) (SARS-CoV-2, UniProt P0DTC2).
B1: binds.
B2: binds.
B3: binds.
B4: binds.
B5: binds.
B6: binds.
B7: binds.
B8: binds.
B9: binds.
B10: binds.
B11: binds.
B12: binds.
B13: binds.
B14: binds.
B15: binds.
B16: binds.
B17: binds.
B18: binds.
B19: binds.
B20: binds.
B21: binds.
B22: binds.
B23: binds.
B24: binds.
B25: binds.
B26: binds.
B27: binds.
B28: binds.
B29: binds.
B30: binds.
B31: binds.
B32: binds.
B33: binds.
B34: binds.
